Assays:
[1] = biological target: H-2Kb (MHC-I) presenting the ovalbumin epitope SIINFEKL (SEQ ID NO: 54) (mouse); assay: flow cytometry, 25-D1.16 staining of T, B and NK cells in OVA-loaded splenocytes against SQZ only, 2 and 4 h after SQZ
[2] = biological target: H-2Kb (MHC-I) presenting the ovalbumin epitope SIINFEKL (SEQ ID NO: 54) (mouse); assay: flow cytometry, 25-D1.16 staining of monocytes in OVA-loaded splenocytes against SQZ only, 2 and 4 h after SQZ

25-D1.16 antibody
increase in fluorescence intensity [1]: > 40% | increase in fluorescence intensity [2]: > 10%
